This series concerns the molecule itself. The experiment in a line: SDS-PAGE of unboiled and boiled samples.

The stoichiometry N is a count of units in the complex or per binding partner.

B1: cholera toxin B-subunit (CTB) (natural protein)
chain: TPQNITDLCAEYHNTQIYTLNDKIFSYTESLAGKREMAIITFKNGAIFQVEVPGSQHIDSQKKAIERMKDTLRIAYLTEAKVEKLCVWNNKTPHAIAAISMAN
Take B1: the “stoichiometry N” value turned out to be 5.

Values taken from paper PMC13218038 (ACS Nano, 2026).
